Source: publication PMC7912279 (2021)

Columns and labels:
[1] = biological target: T1, gastrin-releasing peptide receptor (Homo sapiens, UniProt P30550); assay: LigandTracer on PC-3 cells (1:2 model, KD1)
[2] = biological target: T1, gastrin-releasing peptide receptor; assay: LigandTracer on PC-3 cells (1:2 model, KD2)

T1 sequence (P30550 whole entry): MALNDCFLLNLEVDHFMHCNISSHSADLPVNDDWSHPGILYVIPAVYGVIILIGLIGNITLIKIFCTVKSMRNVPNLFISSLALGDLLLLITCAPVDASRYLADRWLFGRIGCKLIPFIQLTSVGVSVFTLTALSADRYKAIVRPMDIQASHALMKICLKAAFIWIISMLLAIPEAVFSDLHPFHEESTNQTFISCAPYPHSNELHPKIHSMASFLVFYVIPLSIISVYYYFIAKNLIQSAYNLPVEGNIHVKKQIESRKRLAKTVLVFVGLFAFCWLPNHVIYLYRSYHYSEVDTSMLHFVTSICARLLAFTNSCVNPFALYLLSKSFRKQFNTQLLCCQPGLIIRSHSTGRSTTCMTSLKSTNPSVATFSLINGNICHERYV

| Binder | Kd [1] [nM] | Kd [2] [nM] |
| --- | --- | --- |
| SSSFQWAVGHL (99mTc, mercaptoacetyl-Ser-Ser-Ser-PEG2-D-Phe-Gln-Trp-Ala-Val-Gly-His-Sta-Leu-NH2) [maSSS-PEG2-RM26] | 0.061 | 1.2 |
| SESFQWAVGHL (99mTc, mercaptoacetyl-Ser-Glu-Ser-PEG2-D-Phe-Gln-Trp-Ala-Val-Gly-His-Sta-Leu-NH2) [maSES-PEG2-RM26] | 0.849 | 1.4 |
